The values below come from a protein production outcome set (Wang et al. 2014).

The data set is described as follows: label from the status in PepcDB records.

Turning to “MISEIIEFLESNFFYLHPGYTPLNTVVFGIVLGIAVLIILRMFRWLKKDPGELLVPLLPFIFLGSGARALVDNGIYPLTHLLVTPGIYILVGLTTIATLIAAVKLEETRGWDYRKLIFATGSVLAAPNLISIRHIDPVPFLSVLGVFSVFSAAFYALSLRWEFLRGRMNLPVIYAHLFDASSTYVAVDWYGYIEQHVLPSALTGLTGTAMVMFPLKMAVILTALYAIDRYVESDMDSEALKLVIFILGLAPGLRNFLSLSMAV”, the protein production entry is reported as “failed”.

Take “MISFSVMALVFGVVFLAELPDKTALAGLVLGTRYRASYVFAGVAAAFALHVALAVAAGSVLTLLPQQIVHALTGVLFLGGAAVLLMKKGEGEEEIRKPENQSFWKVSSAGFMLILVAEFGDLTQIMTANLAARYDDPLSVGLGAVLALWAVAGLGIVGGRALMKRVPLRLITKVAALLMLALGAWSLYEAVAG”: the protein production result was “failed”.

Turning to “MISKHQAVKKIFDQISDKYDLIDTIISLGLDQRWRRSLISNLKLMPGLQCLDCGAGSGKVTELIMESCDSCSVTALDITDSMFNPELTKRCKFVVSPAESLPFSDETFDRVSSAFLTRNLADVDKYFSEVYRVLKPGGIFVNLDIFNPTKPVFSQFFSLYFYRMVPFFGNHATHSRNYSYLANSVKFFYSPFILSKKLESKGFIVEPKDLFFGSVFMHIAQKKLEHHHHHH”, the protein production entry is “not failed”.

Consider “MISKVIEALAVFTTSVISSMGYGGIVLLMAIESACIPLPSEIIMPFAGYLVYRGEMTLHGAALAGAIGCVVGSIPAYYLGQFGGRPLIEKYGRYVLLSHKELDLADRLFQRWGQWVVFAGRLLPVVRTFIAFPAGVSRMPMGKFIAYTFVGSYPWCYALAWVGEWAGEAWHTDPRVKAVYHRFELVIVVAGVLAVAWFVWHKVKEARRARVPAAADEG”, for which the protein production entry is “failed”.

With “MISLKNFGLLFWKRFSENKLNQVAGALTYSTMLAMVPLVMVIFSIFSAFPVFNEVTGELKEMIFTNFAPSASDMVGEYIDQFVSNSKKMSAVGIVSLIAVALMLINNIDRTLNSIWHNSQSRSPLSSFAIYWMILTLGPLIIGVSIGISSYIKIMFEQSEHLSLGLKLLSFVPFLFTWFIFTLIYTVVPNKKVKIKHSAYGAFLAAIFFTLGKQAFTWYIVTFPSYQLIYGAMATLPIMLLWIQISWLVVLVGAQLASTLDEIGEQIEQ”, the protein production result is “failed”.

As for “MISSATKTLQTNNKTIYVAILSTLTFFLFLDYIPGLQAWSAWVTPPVALFLGLIFALTCGQAHPKFNKKTSKYLLQYSVVGLGFGMNLQSALASGKEGMEFTVISVVGTLLIGWFIGRKIFKIDRNTSYLISSGTAICGGSAIAAIGPVLRAKDSEMSVALGTIFILNAIALFIFPAIGHALDMTEHQFGTWAAIAIHDTSSVVGAGAAYGEEALKVATTIKLTRALWIIPMAFATSFIFKSKGQKISIPWFIFFFILAMIANTYLLNGVPQLGAAINGIARKTLTITMFFIGASLSLDVLRSVGVKPLIQGVLLWVVISLSTLAYIYFV”, the protein production result is listed as “failed”.

For “MISSLKLTEMCTHCGFCLETCPTYVVTRNEVHSPRGRIEAVRIGINSTGFETCMYCRLCETACPAGVKYAQIITPVRKSSLKKTVMEKMLENPKLLAKSLKLLSKANSYPEVQRFVKFVKPNEVSEPLETDGEGDIILFPGCIESVIFRKTVEKAYKYLGKKYKVKIINGCCGLAHISNGNYEGAKKLAIRLAEKVKGKKVITLQSNCAAFMKEYKEWFGIEINAYDFAEFLIKEGIELPKVNDTFTVHYPCHAYRQKLVSHIRNVAEKMGIKIREMEDPHFECGAGGDYWLSHPKLSDMVMNVKRGKIAKSEAKKVIVTNSVCALAIRSMGYDVYHIADLLDT”, the protein production entry is reported as “failed”.

Regarding “MISTLNEIMKCIEDNDTIIIHRHVRPDPDAYGSQLGLKYYIQQKFPQKQVFAVGEAESSLSFIGELDNIDDKTYQDALVIVCDTANAPRIDDERYSTGSKLIKIDHHPAVDQYGDINLVNTNASSTSEIIYDLISHFNDEAIVNKDIASVLYLGIVGDTGRFLFNNTSEHTMEIAGKLIGHDIDHNALLNKMMEKDPKMLPFQGYVLQHFELMDDGFCQVKITEDVLEQFGIQPNEASQFVNTIADIKGLKIWVFAVDEGSEIRCRLRSKGQLIINDIAQDFGGGGHPNASGVSVNSWDEFEQLATALRTKLN”, the protein production entry is on record as “failed”.
